Results taken from publication PMC9207415.

Assay: SEC; TSK gel G3000SWXL, 100 mmol/L sodium phosphate with 100 mmol/L Na2SO4 (pH 6.8), isocratic, 0.4 ml/min, 25°C, UV at 280 nm; area percentages of monomer, oligomeric and truncated forms of the antibody solution (5 g/L in 10 mmol/L potassium phosphate pH 7.0)

NMIJ RM 6208a, AIST-MAB (humanized IgG1κ monoclonal antibody reference material)
area percentage of the monomer peak: (93.7 ± 0.2) %
